Data taken from patent US20250369983A1.

Target: full length gp41 HIV protein (Abcam) (human immunodeficiency virus-1 (HIV-1))
Test: ELISA titration: plates coated with 1 µg/mL antigen, 2F5 in 4-fold dilutions; y axis without label (absorbance)

Substance: 2F5, broadly neutralizing human monoclonal antibody (Polymun Scientific)
- EC50 (read off the curve): 0.1 µg/mL
